Measured values: PMC4372062 (Biochemistry, 2014)

Biological target: the molecule itself
Assay: native gel or EMSA

B1: Fenna–Matthews–Olson antenna protein (FMO) (natural protein, UniProt Q46393 1-366, looked up)
chain: MALFGSNDVTTAHSDYEIVLEGGSSSWGKVKARAKVNAPPASPLLPADCDVKLNVKPLDPAKGFVRISAVFESIVDSTKNKLTIEADIANETKERRISVGEGMVSVGDFSHTFSFEGSVVNLFYYRSDAVRRNVPNPIYMQGRQFHDILMKVPLDNNDLIDTWEGTVKAIGSTGAFNDWIRDFWFIGPAFTALNEGGQRISRIEVNGLNTESGPKGPVGVSRWRFSHGGSGMVDSISRWAELFPSDKLNRPAQVEAGFRSDSQGIEVKVDGEFPGVSVDAGGGLRRILNHPLIPLVHHGMVGKFNNFNVDAQLKVVLPKGYKIRYAAPQYRSQNLEEYRWSGGAYARWVEHVCKGGVGQFEILYAQ
  stoichiometry N: 3
